Values of other authors as cited in US12637513B2, “Method of treating cancer by administering an inhibitor of erythropoietin receptor activity comprising either erythropoietin receptor or erythropoietin protein” (ImmunEdge, Inc., priority 2022, dated 2026).

Biological target: T1, hetero-EPOR (Homo sapiens, UniProt P19235+P32927)
T1 sequence (P19235 25-508): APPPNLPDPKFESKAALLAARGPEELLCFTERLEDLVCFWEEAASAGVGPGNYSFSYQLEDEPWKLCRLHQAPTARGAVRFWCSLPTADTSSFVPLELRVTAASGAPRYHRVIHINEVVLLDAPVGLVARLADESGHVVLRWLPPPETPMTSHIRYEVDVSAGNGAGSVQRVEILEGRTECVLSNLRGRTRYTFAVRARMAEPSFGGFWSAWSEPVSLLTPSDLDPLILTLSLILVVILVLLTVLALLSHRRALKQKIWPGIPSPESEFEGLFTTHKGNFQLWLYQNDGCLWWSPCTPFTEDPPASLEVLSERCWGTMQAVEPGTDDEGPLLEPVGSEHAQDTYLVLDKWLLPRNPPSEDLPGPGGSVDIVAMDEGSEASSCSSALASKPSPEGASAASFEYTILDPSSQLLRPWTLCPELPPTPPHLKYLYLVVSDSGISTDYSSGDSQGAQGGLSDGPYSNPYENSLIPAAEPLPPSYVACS
T1 sequence (P32927 17-897): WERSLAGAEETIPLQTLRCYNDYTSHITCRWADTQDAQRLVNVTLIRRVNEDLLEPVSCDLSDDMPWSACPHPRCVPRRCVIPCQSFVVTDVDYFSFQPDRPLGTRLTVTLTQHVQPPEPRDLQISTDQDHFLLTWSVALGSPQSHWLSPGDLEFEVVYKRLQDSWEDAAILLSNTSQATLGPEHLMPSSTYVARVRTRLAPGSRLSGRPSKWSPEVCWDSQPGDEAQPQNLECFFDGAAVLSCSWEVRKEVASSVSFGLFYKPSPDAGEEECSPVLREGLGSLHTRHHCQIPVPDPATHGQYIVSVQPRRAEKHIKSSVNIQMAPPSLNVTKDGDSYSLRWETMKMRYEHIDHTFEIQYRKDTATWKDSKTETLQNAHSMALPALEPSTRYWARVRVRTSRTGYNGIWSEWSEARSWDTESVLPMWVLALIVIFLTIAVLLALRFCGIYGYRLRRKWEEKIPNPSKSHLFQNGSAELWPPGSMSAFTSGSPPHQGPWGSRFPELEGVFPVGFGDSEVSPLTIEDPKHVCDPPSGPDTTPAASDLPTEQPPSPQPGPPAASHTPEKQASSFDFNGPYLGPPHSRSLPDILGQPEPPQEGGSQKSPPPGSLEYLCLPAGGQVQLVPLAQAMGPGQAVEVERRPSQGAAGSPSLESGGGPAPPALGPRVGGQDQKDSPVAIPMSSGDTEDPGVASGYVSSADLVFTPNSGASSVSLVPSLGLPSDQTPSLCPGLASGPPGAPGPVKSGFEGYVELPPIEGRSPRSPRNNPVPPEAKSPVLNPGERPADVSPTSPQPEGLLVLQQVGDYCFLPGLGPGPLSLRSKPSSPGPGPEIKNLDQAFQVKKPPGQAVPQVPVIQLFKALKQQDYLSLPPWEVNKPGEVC
Settings: cited from earlier work

In the case of QEQLERALNSS, the “activity for the hetero-EPOR” value is listed as “activates the hetero-EPOR”.
